The supplement of paper PMC7877785
± gives the uncertainty stated by the source.

Assay: self-splicing fitness, log relative to wild type (ln ratio); higher = more splicing; Tetrahymena group I intron in knt gene, E. coli kanamycin selection, DiMSum; sequences stand for … in CUCUCU…GGAGGGAAAAGUUAUCAGGCAUGCACCUGGUAGCUAGUCUUUAAACCAAUAGAUUGCAUCGGUUUAAAAGGCAAGACCGUCAAAUUGCGGGAAAGGGGUCAACAGCCGUUCAGUACCAAGUCUCAGGGGAAACUUUGAGAUGGCCUUGCAAAGGGUAUGGUAAUAAGCUGACGGACAUGGUCCUAACCACGCAGCCAAGUCCUAAGUCAACAGAUCUUCUGUUGAUAUGGAUGCAGUUCACAGACUAAAUGUCGGUCGGGGAAGAUGUAUUCUUCUCAUAAGAUAUAGUCGGACCUCUCCUUAAUGGGAGCUAGCGGAUGAAGUGAUGCAACACUGGAGCCGCUGGGAACUAAUUUGUAUGCGAAAGUAUAUUGAUUAGUUUUGGAGUACUCGUGGUCG
In short: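 Colonies from six replicate transformations of E. coli BL21(DE3) were pooled and amplicon-sequenced on an Illumina HiSeq 2500. The library placed an intron with all eight P1ex-region nucleotides randomised inside the knt kanamycin-resistance gene on pET-22b(+), and cells grew overnight at 37°C or 30°C on LB agar with or without 25 μg/mL kanamycin (plus 100 μg/mL carbenicillin, 50 μM IPTG, 0.2% rhamnose). Fitness is the DiMSum error-weighted combination of wild-type-normalised replicate fold changes, kanamycin versus none.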

Sequence	self-splicing fitness (ln) (30 °C)	self-splicing fitness (ln) (37 °C)
CAUGAGCAAUAUUACGUCAA	-4.04 ± 0.33	-2.64 ± 0.33
CAUGAGCAAUAUUACGUUAA	-3.17 ± 0.32	-2.29 ± 0.26
CAUUAGCAAUAUUACGAAGC	-2.81 ± 0.32	-2.44 ± 0.49
CAUUAGCAAUAUUACGACAG	0.268 ± 0.06	0.168 ± 0.071
CAUUAGCAAUAUUACGAGGA	-2.75 ± 0.35	–
CAUUAGCAAUAUUACGAGUC	–	-1.48 ± 0.37
CAUUAGCAAUAUUACGCAAA	–	-2.25 ± 0.32
CAUUAGCAAUAUUACGCACA	-1.01 ± 0.16	-0.408 ± 0.13
CAUUAGCAAUAUUACGCACG	-0.832 ± 0.12	0.325 ± 0.14
CAUUAGCAAUAUUACGCAUU	-3.32 ± 0.15	-1.62 ± 0.094
CAUUAGCAAUAUUACGCGAA	-2.65 ± 0.19	-1.17 ± 0.19
CAUUAGCAAUAUUACGCGGU	-2.75 ± 0.33	-2.05 ± 0.42
CAUUAGCAAUAUUACGCGUA	-1.76 ± 0.22	-1.2 ± 0.18
CAUUAGCAAUAUUACGCUGA	-3.13 ± 0.24	-1.96 ± 0.26
CAUUAGCAAUAUUACGCUUG	-2.46 ± 0.2	-2.6 ± 0.2
CAUUAGCAAUAUUACGGAAC	–	-0.879 ± 0.24
CAUUAGCAAUAUUACGGACU	-2.75 ± 0.28	-1.89 ± 0.23
CAUUAGCAAUAUUACGGCAA	-2 ± 0.22	-3.22 ± 0.47
CAUUAGCAAUAUUACGGCUG	0.0732 ± 0.078	0.0962 ± 0.088
CAUUAGCAAUAUUACGGGGA	-2.73 ± 0.21	-1.77 ± 0.26
CAUUAGCAAUAUUACGGGUC	-3.51 ± 0.29	-1.5 ± 0.23
CAUUAGCAAUAUUACGGGUG	-3.18 ± 0.16	-1.57 ± 0.14
CAUUAGCAAUAUUACGGUGG	-0.719 ± 0.066	0.024 ± 0.093
CAUUAGCAAUAUUACGUAAC	-3.01 ± 0.26	-2.14 ± 0.25
CAUUAGCAAUAUUACGUAAU	-2.73 ± 0.19	-1.96 ± 0.21

Sequence	self-splicing fitness (ln) (30 °C)	self-splicing fitness (ln) (37 °C)
CAUUAGCAAUAUUACGUUGC	-3.96 ± 0.19	-2.8 ± 0.19
CCAAAGCAAUAUUACGAAGA	-3.61 ± 0.27	-2.2 ± 0.22
CCAAAGCAAUAUUACGAAUC	-2.82 ± 0.33	-2.52 ± 0.34
CCAAAGCAAUAUUACGACCG	-0.022 ± 0.096	-0.0691 ± 0.14
CCAAAGCAAUAUUACGAGUU	-4.72 ± 0.34	-2.31 ± 0.16
CCAAAGCAAUAUUACGAUAC	-2.15 ± 0.27	–
CCAAAGCAAUAUUACGAUAU	-4.16 ± 0.15	-2.79 ± 0.13
CCAAAGCAAUAUUACGAUCG	0.0481 ± 0.058	-0.183 ± 0.075
CCAAAGCAAUAUUACGAUGC	-3.78 ± 0.19	-3.64 ± 0.24
CCAAAGCAAUAUUACGAUGG	-4.15 ± 0.22	-2.29 ± 0.22
CCAAAGCAAUAUUACGAUGU	-2.93 ± 0.1	-2.1 ± 0.11
CCAAAGCAAUAUUACGCCGC	–	-2.58 ± 0.38
CCAAAGCAAUAUUACGCCUG	-0.536 ± 0.055	-0.707 ± 0.07
CCAAAGCAAUAUUACGCGAU	-3.16 ± 0.21	-2.79 ± 0.28
CCAAAGCAAUAUUACGCGUA	-4.41 ± 0.34	-3.75 ± 0.32
CCAAAGCAAUAUUACGCGUG	-1.93 ± 0.067	-1.26 ± 0.066
CCAAAGCAAUAUUACGGUCU	-3.75 ± 0.16	-3.15 ± 0.19
CCAAAGCAAUAUUACGUACC	-3.76 ± 0.37	-2.19 ± 0.32
CCAAAGCAAUAUUACGUAUA	-4.79 ± 0.32	-2.3 ± 0.14
CCAAAGCAAUAUUACGUCAG	-1.64 ± 0.065	-0.149 ± 0.08
CCAAAGCAAUAUUACGUCAU	-3.8 ± 0.2	-2.87 ± 0.22
CCAAAGCAAUAUUACGUUGA	-3.42 ± 0.29	-0.401 ± 0.14
CCAAAGCAAUAUUACGUUGU	-3.77 ± 0.12	-2.44 ± 0.12
CCACAGCAAUAUUACGAACG	-0.247 ± 0.07	-0.267 ± 0.075
CCACAGCAAUAUUACGACAA	-3.09 ± 0.22	-1.91 ± 0.17

Sequence	self-splicing fitness (ln) (30 °C)	self-splicing fitness (ln) (37 °C)
CCACAGCAAUAUUACGAGUC	-3.55 ± 0.24	-2.7 ± 0.22
CCACAGCAAUAUUACGAUGA	-1.9 ± 0.11	-1.77 ± 0.12
CCACAGCAAUAUUACGCAGG	-3.97 ± 0.27	-2.35 ± 0.23
CCACAGCAAUAUUACGCCUC	-2.9 ± 0.26	-2.58 ± 0.35
CCACAGCAAUAUUACGCGAC	-2.75 ± 0.17	-2.76 ± 0.26
CCACAGCAAUAUUACGCUGA	-2.51 ± 0.12	-3.16 ± 0.24
CCACAGCAAUAUUACGGCCA	-3.79 ± 0.29	-2.75 ± 0.27
CCACAGCAAUAUUACGGCGA	-3.36 ± 0.18	-1.63 ± 0.13
CCACAGCAAUAUUACGGCUA	-3.88 ± 0.16	-2.89 ± 0.15
CCACAGCAAUAUUACGGGCU	-4.83 ± 0.27	-3.07 ± 0.18
CCACAGCAAUAUUACGGGGG	-2.71 ± 0.093	-2.4 ± 0.16
CCACAGCAAUAUUACGUCAC	-3.34 ± 0.15	-2.86 ± 0.22
CCACAGCAAUAUUACGUCGC	-3.63 ± 0.17	-3.36 ± 0.22
CCACAGCAAUAUUACGUGAA	-2.7 ± 0.072	-1.01 ± 0.082
CCACAGCAAUAUUACGUGAU	-3.51 ± 0.18	-1.98 ± 0.12
CCACAGCAAUAUUACGUUGC	-3.44 ± 0.13	-2.73 ± 0.14
CCACAGCAAUAUUACGUUGU	-2.37 ± 0.076	-2.83 ± 0.13
CCAGAGCAAUAUUACGAAAU	-3.47 ± 0.23	-2.93 ± 0.25
CCAGAGCAAUAUUACGACAA	–	-2.03 ± 0.45
CCAGAGCAAUAUUACGACAC	-1.29 ± 0.22	–
CCAGAGCAAUAUUACGACAG	-0.807 ± 0.094	-0.408 ± 0.15
CCAGAGCAAUAUUACGACGU	-3.74 ± 0.27	-3.28 ± 0.47
CCAGAGCAAUAUUACGAGAU	-4.57 ± 0.2	-3.15 ± 0.16
CCAGAGCAAUAUUACGAUAG	-1.42 ± 0.082	-1 ± 0.12
CCAGAGCAAUAUUACGCAUU	-3.53 ± 0.33	-2.22 ± 0.2

Sequence	self-splicing fitness (ln) (30 °C)	self-splicing fitness (ln) (37 °C)
CCAGAGCAAUAUUACGCUAC	–	-1.72 ± 0.33
CCAGAGCAAUAUUACGGAAU	-3.42 ± 0.26	-2.52 ± 0.17
CCAGAGCAAUAUUACGGAGG	-2.49 ± 0.18	-1.87 ± 0.24
CCAGAGCAAUAUUACGGAUA	-3.52 ± 0.22	-1.91 ± 0.16
CCAGAGCAAUAUUACGGGGC	-3.91 ± 0.24	-2.8 ± 0.21
CCAGAGCAAUAUUACGGGGG	-3.72 ± 0.46	-2.44 ± 0.31
CCAGAGCAAUAUUACGGUGG	-3.31 ± 0.17	-3.31 ± 0.24
CCAGAGCAAUAUUACGUAUA	–	-2.35 ± 0.29
CCAGAGCAAUAUUACGUCUA	-2.37 ± 0.19	-2.23 ± 0.24
CCAGAGCAAUAUUACGUGCG	-1.59 ± 0.077	-0.888 ± 0.097
CCAGAGCAAUAUUACGUGUG	-1.69 ± 0.091	-1.54 ± 0.097
CCAGAGCAAUAUUACGUUCU	-3.71 ± 0.31	-1.84 ± 0.31
CCAGAGCAAUAUUACGUUGC	-4.54 ± 0.37	-2.11 ± 0.18
CCAUAGCAAUAUUACGAAGG	-3.26 ± 0.22	-2.87 ± 0.34
CCAUAGCAAUAUUACGACUG	-0.667 ± 0.071	-0.0816 ± 0.087
CCAUAGCAAUAUUACGAGGA	-2.97 ± 0.25	-2.05 ± 0.25
CCAUAGCAAUAUUACGAGUA	-3.41 ± 0.32	-2.06 ± 0.19
CCAUAGCAAUAUUACGAUCA	-2.94 ± 0.18	-3.23 ± 0.29
CCAUAGCAAUAUUACGAUUU	-3.31 ± 0.2	-2.37 ± 0.23
CCAUAGCAAUAUUACGCAUA	-3.76 ± 0.26	-2.72 ± 0.29
CCAUAGCAAUAUUACGCCGC	-1.47 ± 0.21	–
CCAUAGCAAUAUUACGCGCG	-0.974 ± 0.091	-0.0324 ± 0.1
CCAUAGCAAUAUUACGCGGU	-3.9 ± 0.23	-2.5 ± 0.26
